Laboratory results: patent US20170362301A1 (Janssen / Centocor, published 2017)
Residue numbers refer to the chain shown, from its start. Names and notes keep the numbering of the source.

B1: P54AR4-83v2 E53C, NEM conjugate (designed binder)
chain: LPAPKNLVVSEVTEDSARLSWDDPWAFYESFLIQYQESEKVGEAIVLTVPGSCRSYDLTGLKPGTEYTVSIYGVHNVYKDTNMRGLPLSAIFTT
modifications: NEM on Cys 53
notes: His-tagged
B2: P54AR4-83v2 L32C, NEM conjugate (designed binder)
chain: B1 chain with L32C, C53E
modifications: NEM on Cys 32
notes: His-tagged
B3: P54AR4-83v2 G73C, NEM conjugate (designed binder)
chain: B1 chain with C53E, G73C
modifications: NEM on Cys 73
notes: His-tagged
B4: P54AR4-83v2 P4C, NEM conjugate (designed binder)
chain: B1 chain with P4C, C53E
modifications: NEM on Cys 4
notes: His-tagged
B5: P54AR4-83v2 G60C, NEM conjugate (designed binder)
chain: B1 chain with C53E, G60C
modifications: NEM on Cys 60
notes: His-tagged
B6: P54AR4-83v2 K62C, NEM conjugate (designed binder)
chain: B1 chain with C53E, K62C
modifications: NEM on Cys 62
notes: His-tagged
B7: P54AR4-83v2 H75C, NEM conjugate (designed binder)
chain: B1 chain with C53E, H75C
modifications: NEM on Cys 75
notes: His-tagged
B8: P54AR4-83v2 P24C, NEM conjugate (designed binder)
chain: B1 chain with P24C, C53E
modifications: NEM on Cys 24
notes: His-tagged
B9: P54AR4-83v2 F31C, NEM conjugate (designed binder)
chain: B1 chain with F31C, C53E
modifications: NEM on Cys 31
notes: His-tagged
B10: P54AR4-83v2 G85C, NEM conjugate (designed binder)
chain: B1 chain with C53E, G85C
modifications: NEM on Cys 85
notes: His-tagged
B11: P54AR4-83v2 P2C, NEM conjugate (designed binder)
chain: B1 chain with P2C, C53E
modifications: NEM on Cys 2
notes: His-tagged
B12: P54AR4-83v2 G64C, NEM conjugate (designed binder)
chain: B1 chain with C53E, G64C
modifications: NEM on Cys 64
notes: His-tagged
B13: P54AR4-83v2 I91C, NEM conjugate (designed binder)
chain: B1 chain with C53E, I91C
modifications: NEM on Cys 91
notes: His-tagged; also called 191C
B14: P54AR4-83v2 N6C, NEM conjugate (designed binder)
chain: B1 chain with N6C, C53E
modifications: NEM on Cys 6
notes: His-tagged
B15: P54AR4-83v2 N82C, NEM conjugate (designed binder)
chain: B1 chain with C53E, N82C
modifications: NEM on Cys 82
notes: His-tagged
B16: P54AR4-83v2 L7C, NEM conjugate (designed binder)
chain: B1 chain with L7C, C53E
modifications: NEM on Cys 7
notes: His-tagged
B17: P54AR4-83v2 P50C, NEM conjugate (designed binder)
chain: B1 chain with P50C, C53E
modifications: NEM on Cys 50
notes: His-tagged
B18: P54AR4-83v2 L88C, NEM conjugate (designed binder)
chain: B1 chain with C53E, L88C
modifications: NEM on Cys 88
notes: His-tagged
B19: P54AR4-83v2 N76C, NEM conjugate (designed binder)
chain: B1 chain with C53E, N76C
modifications: NEM on Cys 76
notes: His-tagged
B20: P54AR4-83v2 L86C, NEM conjugate (designed binder)
chain: B1 chain with C53E, L86C
modifications: NEM on Cys 86
notes: His-tagged
B21: P54AR4-83v2 L47C, NEM conjugate (designed binder)
chain: B1 chain with L47C, C53E
modifications: NEM on Cys 47
notes: His-tagged
B22: P54AR4-83v2 F27C, NEM conjugate (designed binder)
chain: B1 chain with F27C, C53E
modifications: NEM on Cys 27
notes: His-tagged
B23: P54AR4-83v2 M83C, NEM conjugate (designed binder)
chain: B1 chain with C53E, M83C
modifications: NEM on Cys 83
notes: His-tagged
B24: P54AR4-83v2 K79C, NEM conjugate (designed binder)
chain: B1 chain with C53E, K79C
modifications: NEM on Cys 79
notes: His-tagged
B25: P54AR4-83v2 G42C, NEM conjugate (designed binder)
chain: B1 chain with G42C, C53E
modifications: NEM on Cys 42
notes: His-tagged
B26: P54AR4-83v2 K40C, NEM conjugate (designed binder)
chain: B1 chain with K40C, C53E
modifications: NEM on Cys 40
notes: His-tagged
B27: P54AR4-83v2 K5C, NEM conjugate (designed binder)
chain: B1 chain with K5C, C53E
modifications: NEM on Cys 5
notes: His-tagged
B28: P54AR4-83v2 G51C, NEM conjugate (designed binder)
chain: B1 chain with G51C, C53E
modifications: NEM on Cys 51
notes: His-tagged
B29: P54AR4-83v2 I45C, NEM conjugate (designed binder)
chain: B1 chain with I45C, C53E
modifications: NEM on Cys 45
notes: His-tagged

Tests used:
[1] = molecular target: T1, EGFR (form in the assay not stated) (human, UniProt P00533 25-645, limits assumed); assay: ELISA, NEM conjugate 500 nM
[2] = molecular target: T1, EGFR (form in the assay not stated); assay: ELISA, NEM conjugate 100 nM
[3] = molecular target: T1, EGFR (form in the assay not stated); assay: ELISA, NEM conjugate 10 nM

Binder | binding ratio vs parent P54AR4-83v2 [1] [ratio] | binding ratio vs parent P54AR4-83v2 [2] [ratio] | binding ratio vs parent P54AR4-83v2 [3] [ratio]
B1 | 0.91 | 1.02 | 0.91
B2 | 0.91 | 1.01 | 0.87
B3 | 0.21 | 0.02 | 0
B4 | 0.12 | 0.02 | 0.02
B5 | 0.93 | 1.02 | 0.86
B6 | 0.61 | 0.73 | 0.64
B7 | 0.25 | 0.19 | 0.07
B8 | 0.83 | 0.85 | 0.45
B9 | 0.62 | 0.34 | 0.04
B10 | 0.29 | 0.02 | 0.19
B11 | 0.01 | 0 | 0
B12 | 1.36 | 1.42 | 1.28
B13 | 1 | 1.01 | 0.9
B14 | 0.89 | 1.01 | 0.76
B15 | 0.96 | 0.97 | 0.56
B16 | 0.9 | 1 | 0.35
B17 | 0.97 | 1.05 | 0.91
B18 | 0.97 | 1.03 | 0.95
B19 | 0.91 | 0.97 | 0.75
B20 | 0.92 | 0.96 | 0.77
B21 | 0.91 | 1.02 | 0.92
B22 | 0.23 | 0.07 | 0
B23 | 0.24 | 0.04 | 0.07
B24 | 0.93 | 0.99 | 0.9
B25 | 0.9 | 0.99 | 0.84
B26 | 0.86 | 0.95 | 0.88
B27 | 0.92 | 1.06 | 0.61
B28 | 0.92 | 1.03 | 0.88
B29 | 0.93 | 1.04 | 0.91
